Data as given in the supplement of paper PMC9170038.

Test system: MS2 coat protein
Assay: apparent KD of MS2 coat protein; designed switch direction (-1 OFF switch, 1 ON switch): -1; higher = weaker reporter binding
How it was run: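 The reported apparent KD is a per-design median over clusters, from curve fits of normalised cluster fluorescence. Protein titrations used SNAP-549-labelled MS2 coat protein, doubled from 0.7 or 1.5 nM to 3 µM, in Tris-HCl pH 7.5 buffer with KCl, MgCl2, BSA, DTT, tRNA and Tween-20, with no input, 200 uM small-molecule ligand, or an oligonucleotide input. The RNA switches were transcribed on Illumina chips by stalled E. coli RNA polymerase.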

[1] = Eterna round: R95, input ligand: microRNA oligo, concentration not stated
[2] = Eterna round: R95, input ligand: FMN 200 uM
[3] = Eterna round: R95, input ligand: none
[4] = input ligand: microRNA oligo, concentration not stated

“GUGAAGGUAGGAUAUACGAUAAUAUAGGGUAGAUAUAUAACACAUGAGGAUCACCCAUGUAGAAGGACCAAUUG [Mat - Exclusion 2 - Mod of my Tesla design - D59] (puzzle: Exclusion 2)” was tested, and the “apparent KD of MS2 coat protein” value [1] was 29.1 nM.

For “GUGAAGUAAGGAUAUACAUGAGGAUCACCCAUGUAAGGGAAGGUGAUGGGAGUAGAUAGUAGAAGGUACGAGGA [JR_Exclu3_Sub066] (puzzle: Exclusion 3)”, the “apparent KD of MS2 coat protein” value [1] was 103 nM.

In the case of “GUGAAGUGAGGAUAUACGAGAGAGGCUGAACCGGACGAGAAGUAGAAGGCACAUGAGGAUCACCCAUGUACGGG [JR_Exclu4_Sub023] (puzzle: Exclusion 4)”, the “apparent KD of MS2 coat protein” value [1] was 164 nM.

In the case of “GUGAUAUAGUUAGUGGCCUACAUGAGGAUCACCCAUGUGAGGGAAAUGUUGAGGCGAAAGUUUUUUGCUCGUCUUUA [JR_SV3TOV1_Sub038] (puzzle: Sensor v3, turn-off variant 1)”, the “apparent KD of MS2 coat protein” value [2] was 18 nM, the “apparent KD of MS2 coat protein” value [1] was 38.6 nM and the “apparent KD of MS2 coat protein” value [3] was 19.1 nM.

For “GUGAUCUAUCAUGGGAUAAACAUGAGGAUCACCCAUGUACACAAGUUUUUUGCUCGUCUUAUAAUAAGAUAGAUCAC [Antenna 3 - Jieux - Sensor, turn-off variant 1] (Eterna round: R97, puzzle: Sensor, turn-off variant 1)”, the “apparent KD of MS2 coat protein” value (input ligand: FMN 200 uM) was 21 nM and the “apparent KD of MS2 coat protein” value (input ligand: none) was 20.9 nM.

“GUGAUCUAUCAUGUAAUGAACAUGAGGAUCACCCAUGUAGACAAGUUUUUUGCUCGUCUCAUAAUAAGAUAGAUCAC [Antenna 17 - Jieux - Sensor, turn-off variant 1] (Eterna round: R97, puzzle: Sensor, turn-off variant 1)” was tested, and the “apparent KD of MS2 coat protein” value (input ligand: FMN 200 uM) was 17.5 nM and the “apparent KD of MS2 coat protein” value (input ligand: none) was 19.3 nM.

“GUGCAACAUGAGGAUCACCCAUGUCAGGAUAUGCGAAUUUCAUCAAAAGAUGAAAUUUGCAGAAGGGACAGCAC [Omei Ex1 A16] (Eterna round: R97, puzzle: Exclusion 1)” was tested, and the “apparent KD of MS2 coat protein” value (input ligand: FMN 200 uM) was 32 nM and the “apparent KD of MS2 coat protein” value (input ligand: none) was 24.4 nM.

For “GUGCCACAUGAGGAUCACCCAUGUGAGGAUAUGGCCUGUUUGGCGUGUGCUGGCUCUGUCAGAAGGCGCGUGGG [salish99_ex1_r4_037] (Eterna round: R97, puzzle: Exclusion 1)”, the “apparent KD of MS2 coat protein” value (input ligand: FMN 200 uM) was 39.1 nM and the “apparent KD of MS2 coat protein” value (input ligand: none) was 26.8 nM.

In the case of “GUGCCGCGAGGAUAUACAGACGGGUCCAAAACGUGUCUCGGACUUGAGGAUCACCCAAGUAGAAGGCUUUUCAG [salish99_ex2_r4_621] (Eterna round: R97, puzzle: Exclusion 2)”, the “apparent KD of MS2 coat protein” value (input ligand: FMN 200 uM) was 28.3 nM and the “apparent KD of MS2 coat protein” value (input ligand: none) was 24.3 nM.

“GUGCCGCGAGGAUAUACAGACGGGUCCAAUACGUGUCUCGGACUUGAGGAUCACCCAAGUAGAAGGCUUUUCAG [LRO-Excl2-11-mod _r4_621 by salish99] (Eterna round: R97, puzzle: Exclusion 2)” was tested, and the “apparent KD of MS2 coat protein” value (input ligand: FMN 200 uM) was 27.7 nM and the “apparent KD of MS2 coat protein” value (input ligand: none) was 27.7 nM.

“GUGCUAUAGGAAGGAUAUACUUCAUUGUUUAAACAUGAGGAUCACCCAUGUAACCUUAUGUAUGUGUAGAAGGUCCAUAGCUUA (Eterna round: R96, puzzle: Exclusion NG 2)” was tested, and the “apparent KD of MS2 coat protein” value (input ligand: FMN 200 uM) was 56.9 nM, the “apparent KD of MS2 coat protein” value [4] was 25.1 nM and the “apparent KD of MS2 coat protein” value (input ligand: none) was 30.2 nM.

“GUGCUGGUAGGAUAUACAUGAGGAUCACCCAUGUGGCGUGACUCCUAUGGCAGCGCCGGUAGAAGGAUUAGAAG [Eternabot (L1) Solution 60] (Eterna round: R97, puzzle: Exclusion 3)” was tested, and the “apparent KD of MS2 coat protein” value (input ligand: FMN 200 uM) was 188 nM and the “apparent KD of MS2 coat protein” value (input ligand: none) was 261 nM.

“GUGGAGUAAGGAUAUACAUGAGGAUCACCCAUGUGAGGGUAUGUGAUGGGAGUAGGUUGUAGAAGGUACGAGGA [JR_Exclu3_Sub068] (puzzle: Exclusion 3)” was tested, and the “apparent KD of MS2 coat protein” value [1] was 160 nM.

With “GUGGGCUUUUAGGUUCUUAACAUGAGGAUCACCCAUGUGCUUGUCUUGCUGGCUGGCGGGUCGUCGGUCGGGCUUGU (Eterna round: R97, puzzle: Sensor, turn-off variant 1)” the “apparent KD of MS2 coat protein” value (input ligand: FMN 200 uM) was 489 nM and the “apparent KD of MS2 coat protein” value (input ligand: none) was 584 nM.

“GUGGGUUACAUGAGGAUCACCCAUGUAGAGUGGGAAGAGAGAUAGGAUAUGAUGUGAGAAUUAUAUCAGAAGGAUCGAGACUCG [AK ExNG3-2.4] (Eterna round: R96, puzzle: Exclusion NG 3)” was tested, and the “apparent KD of MS2 coat protein” value (input ligand: FMN 200 uM) was 268 nM, the “apparent KD of MS2 coat protein” value [4] was 136 nM and the “apparent KD of MS2 coat protein” value (input ligand: none) was 214 nM.

For “GUGGUACAUGAGGAUCACCCAUGUCAGGAUAUCGCGUGGUUUUUUGCGGCCGCGCGCGCGAGAAGGGACGUCUU (puzzle: Exclusion 1)”, the “apparent KD of MS2 coat protein” value [1] was 29.1 nM.

In the case of “GUGGUACAUGAGGAUCACCCAUGUUAGGAUAUCGCGUGAGGUUUUACUUCCACACACACGAGAAGGGACGUCUU (puzzle: Exclusion 1)”, the “apparent KD of MS2 coat protein” value [1] was 41 nM.

“GUGUAACUACACGGGCUCAACAUGAGGAUCACCCAUGUCAUACACGCAAGCUUUCUGCUUGUCUUAUCUGUCCGUGA [Acela] (puzzle: Sensor v3, turn-off variant 1)” was tested, and the “apparent KD of MS2 coat protein” value [2] was 13.2 nM, the “apparent KD of MS2 coat protein” value [1] was 12.5 nM and the “apparent KD of MS2 coat protein” value [3] was 10.4 nM.

For “GUGUACAGAGGAUAUACAUGAGGAUCACCCAUGUGAAUAAGAUAGAAUAAGAUAAAGUGUAGAAGGCUGAGUGU [Excluse me!!! 1 - Jieux - Exclusion 3] (puzzle: Exclusion 3)”, the “apparent KD of MS2 coat protein” value [2] was 28.8 nM, the “apparent KD of MS2 coat protein” value [1] was 35.7 nM and the “apparent KD of MS2 coat protein” value [3] was 38.4 nM.

For “GUGUACAGAGGAUAUACUCAUGGAGUUACGAAAGUAACUUCACAUGAGGAUCACCCAUGUAGAAGGCUGUACAC [Dot plot directed v9] (puzzle: Exclusion 2)”, the “apparent KD of MS2 coat protein” value [1] was 341 nM.

“GUGUACAGAGGAUAUGCUUGAAUCUAGCGAAGCUAGGUUCGACAUGAGGAUCACCCAUGUAGAAGGCUGUACAC [Dot plot directed A v3] (puzzle: Exclusion 2)” was tested, and the “apparent KD of MS2 coat protein” value [1] was 13.4 nM.

For “GUGUACGGAGGAUAUAUGUGGGCAGCAUACGCUGCAGCUUCACAUGAGGAUCACCCAUGUAGAAGGCUGUACAC [Mat - Exclusion 2 - Mod of Hyphema - D102] (puzzle: Exclusion 2)”, the “apparent KD of MS2 coat protein” value [1] was 21.4 nM.

For “GUGUACGGAGGAUAUGCUGGAAUCUAGCGAAGCUAGGUUCCACAUGAGGAUCACCCAUGUAGAAGGUCGUACAC [Dot plot directed A v8] (puzzle: Exclusion 2)”, the “apparent KD of MS2 coat protein” value [1] was 29.6 nM.

In the case of “GUGUACGUAGGAUAUGCUGGAAUCUAGCGAAGCUAGGUUCCACAUGAGGAUCACCCAUGUAGAAGGGCGUACAC [Dot plot directed A v9] (puzzle: Exclusion 2)”, the “apparent KD of MS2 coat protein” value [1] was 132 nM.

With “GUGUAGAUAGGAUAUACGUGAGUCUAGCGAAGCUAGAUUCUACAUGAGGAUCACCCAUGUAGAAGGGUCUACAC [Fiskers Ex 2 - 27] (puzzle: Exclusion 2)” the “apparent KD of MS2 coat protein” value [1] was 15.1 nM.

“GUGUAGGUAGGAUAUACAUGAGGAUCACCCAUGUGAAUAAGAUAGAAUAAGAUAAAGUGUAGAAGGACUAGUGU [Excluse me!!! 14 - Jieux - Exclusion 3] (puzzle: Exclusion 3)” was tested, and the “apparent KD of MS2 coat protein” value [1] was 38.7 nM.

For “GUGUAGUCAGGAUAUACAUAGGAAGAGAAGAGAAGAGAAGUACAUGAGGAUCACCCAUGUAGAAGGGACAGUGU [Excluse me!! 6 - Jieux - Exclusion 2] (puzzle: Exclusion 2)”, the “apparent KD of MS2 coat protein” value [1] was 21.7 nM.

For “GUGUAGUCAGGAUAUACAUAGGAAGAUAAGAUAAGAUAAGCACAUGAGGAUCACCCAUGUAGAAGGGACAGUGU [Excluse me!! 1 - Jieux - Exclusion 2] (puzzle: Exclusion 2)”, the “apparent KD of MS2 coat protein” value [2] was 159 nM, the “apparent KD of MS2 coat protein” value [1] was 74.2 nM and the “apparent KD of MS2 coat protein” value [3] was 122 nM.

For “GUGUAGUCAGGAUAUACAUGAGGAUCACCCAUGUGAAUAAGAUAGAAUAAGAUAAAGUGUAGAAGGGAUAGUGU [Excluse me!!! 22 - Jieux - Exclusion 3] (puzzle: Exclusion 3)”, the “apparent KD of MS2 coat protein” value [1] was 30.7 nM.

With “GUGUAGUGAGGAUAUACAUGAGGAUCACCCAUGUGAAUAAGAUAGAAUAAGAUAAAGUGUAGAAGGCAUAGUGU [Excluse me!!! 21 - Jieux - Exclusion 3] (puzzle: Exclusion 3)” the “apparent KD of MS2 coat protein” value [1] was 39.3 nM.

In the case of “GUGUAGUGAGGAUAUCGUUGUUAGGAGGAGAAGGUAGGAGGCGAGAAGGCACAUGAGGAUCACCCAUGUAUGAG [JR_Exclu4_Sub063] (puzzle: Exclusion 4)”, the “apparent KD of MS2 coat protein” value [1] was 23.5 nM.

With “GUGUGCAGAGGAUAUACAGAGGAAAAGAAAAGAUAAGUGAUACAUGAGGAUCACCCAUGUAGAAGGCUGAGUGU [Excluse me!! 21 - Jieux - Exclusion 2] (puzzle: Exclusion 2)” the “apparent KD of MS2 coat protein” value [2] was 32.8 nM, the “apparent KD of MS2 coat protein” value [1] was 21.1 nM and the “apparent KD of MS2 coat protein” value [3] was 22.7 nM.

In the case of “GUGUGCAGAGGAUAUACAGAGGAAGAGAAGAGAAGAGAAGGACAUGAGGAUCACCCAUGUAGAAGGCUGAGUGU [Excluse me!! 19 - Jieux - Exclusion 2] (puzzle: Exclusion 2)”, the “apparent KD of MS2 coat protein” value [2] was 33.7 nM, the “apparent KD of MS2 coat protein” value [1] was 30.2 nM and the “apparent KD of MS2 coat protein” value [3] was 31.6 nM.

With “GUGUGCUGAGGAUAUACAGAGGAAGAUAAUACAAUAUAAGUACAUGAGGAUCACCCAUGUAGAAGGCAGAGUGU [Excluse me!! 11 - Jieux - Exclusion 2] (puzzle: Exclusion 2)” the “apparent KD of MS2 coat protein” value [1] was 23.4 nM.
